Substitutions are numbered along the chain they refer to.

The values that follow come from patent US20170204182A1 (published 2017).

The chains are these.
B1: Rb86 HC Rb86 / LC 014--IMGT_hVK_1_17 (antibody, V domains shown)
VH: QSVEESGGRLVTPGTPLTLTCTVSGFSLSSNAINWVRQAPGKGLEWIGYIAVSGNTYYASWAKGRFTISKASTTVDLKMTSPTAEDTGTYFCGKSNIWGPGTLVTVSL
VL: DIQMTQSPSSLSASVGDRVTITCRASQGVRTNKLAWFQQKPGQPPKRLIYSASTLQSGVPSRFSGSGSGTEFTLTISSLQSEDFATYYCLGYFDCSIADCVAFGGGTKVEIK
B2: Rb86 HC 001_IGHV3_23_04 / LC Rb86 (antibody, V domains shown)
VH: QQLVESGGGLVQPGGSLRLSCAASGFSLSSNAINWVRQAPGKGLEWVGYIAVSGNTYYASWAKGRFTISRDNSKNTLYLQMNSLRAEDTAVYYCGKSNIWGQGTLVTVSS
VL: AQVLTQTTSPVSAAVGSTVTISCQSSQSVRTNKLAWFQQKPGQPPKRLIYSASTLDFGVPSRFSASGSGTQFTLTISDVQCDDAATYYCLGYFDCSIADCVAFGGGTEVVVK
B3: Rb86 HC 001_IGHV3_23_04 / LC 006--IMGT_hVK_7_3 (antibody, V domains shown)
VH: B2 VH
VL: DIVLTQSPASLAVSPGQRATITCQSSQSVRTNKLAWFQQKPGQPPKRLIYSASTLDFGVPARFSGSGSGTDFTLTINPVEANDTANYYCLGYFDCSIADCVAFGGGTKVEIK
B4: Rb86 HC 002--IMGT_hVH_3_23 / LC Rb86 (antibody, V domains shown)
VH: B2 VH with Q2S, L3V, V4L, Q102P
VL: B2 VL
B5: Rb86 HC 001_IGHV3_23_04 / LC 014--IMGT_hVK_1_17 (antibody, V domains shown)
VH: B2 VH
VL: B1 VL
B6: Rb86 HC 001_IGHV3_23_04 / LC 015--IMGT_hVK_1_17 (antibody, V domains shown)
VH: B2 VH
VL: B1 VL with S81P, C95S, C100S
B7: Rb86 HC 001_IGHV3_23_04 / LC 005--IMGT_hVK_4_1 (antibody, V domains shown)
VH: B2 VH
VL: DIVMTQSPDSLAVSLGERATINCKSSQSVRTNKLAWFQQKPGQPPKRLIYSASTLDSGVPDRFSGSGSGTDFTLTISSLQAEDVAVYYCLGYFDSSIADSVAFGGGTKVEIK
B8: Rb86 HC 001_IGHV3_23_04 / LC 001--IMGT_hVK_1_5 (antibody, V domains shown)
VH: B2 VH
VL: DIQMTQSTSTLSASVGDRVTITCQSSQSVRTNKLAWFQQKPGKAPKRLIYSASTLDFGVPSRFSGSGSGTEFTLTISSLQPDDFATYYCLGYFDCSIADCVAFGGGTKVEIK
B9: Rb86 HC 001_IGHV3_23_04 / LC 003--IMGT_hVK_4_1 (antibody, V domains shown)
VH: B2 VH
VL: B7 VL with D1A, I2Q, S95C, S100C, K108E, E110V, I111V
B10: Rb86 HC 001_IGHV3_23_04 / LC 017--IMGT_hVK_1_17 (antibody, V domains shown)
VH: B2 VH
VL: B1 VL with A25S, G28S, Q56D, S57F, S81P
B11: Rb86 HC 001_IGHV3_23_04 / LC 002--IMGT_hVK_4_1 (antibody, V domains shown)
VH: B2 VH
VL: B7 VL with D1A, I2Q, S95C, S100C
B12: Rb86 HC 001_IGHV3_23_04 / LC 013--IMGT_hVK_1_17 (antibody, V domains shown)
VH: B2 VH
VL: B1 VL with P8T, S81P
B13: Rb86 HC 001_IGHV3_23_04 / LC 010--IMGT_hVK_1_17 (antibody, V domains shown)
VH: B2 VH
VL: B1 VL with A35G, F37Y, Q43K, P44A, S81P
B14: Rb86 HC 001_IGHV3_23_04 / LC 012--IMGT_hVK_1_17 (antibody, V domains shown)
VH: B2 VH
VL: B1 VL with S81P
B15: Rb86 HC 001_IGHV3_23_04 / LC 004--IMGT_hVK_4_1 (antibody, V domains shown)
VH: B2 VH
VL: B7 VL with S95C, S100C
B16: Rb86 variant: HC Rb86 / LC 012--IMGT_hVK_1_17 (antibody, V domains shown)
VH: B1 VH
VL: B1 VL with S81P
B17: Rb86 variant: HC 001_IGHV3_23_04 / LC 004--IMGT_hVK_4_1 (antibody, V domains shown)
VH: B2 VH
VL: B7 VL with S95C, S100C
B18: Rb86 variant: HC 001_IGHV3_23_04 / LC Rb86 (antibody, V domains shown)
VH: B2 VH
VL: B2 VL
B19: Rb86 variant: HC 001_IGHV3_23_04 / LC 006--IMGT_hVK_7_3 (antibody, V domains shown)
VH: B2 VH
VL: B3 VL
B20: Rb86 variant: HC 002--IMGT_hVH_3_23 / LC Rb86 (antibody, V domains shown)
VH: B2 VH with Q2S, L3V, V4L, Q102P
VL: B2 VL
B21: Rb86 variant: HC 001_IGHV3_23_04 / LC 005--IMGT_hVK_4_1 (antibody, V domains shown)
VH: B2 VH
VL: B7 VL
B22: Rb86 variant: HC 001_IGHV3_23_04 / LC 002--IMGT_hVK_4_1 (antibody, V domains shown)
VH: B2 VH
VL: B7 VL with D1A, I2Q, S95C, S100C
B23: Rb86 variant: HC 001_IGHV3_23_04 / LC 003--IMGT_hVK_4_1 (antibody, V domains shown)
VH: B2 VH
VL: B7 VL with D1A, I2Q, S95C, S100C, K108E, E110V, I111V
B24: Rb86 variant: HC 001_IGHV3_23_04 / LC 001--IMGT_hVK_1_5 (antibody, V domains shown)
VH: B2 VH
VL: B8 VL

In one experiment the target is T1, phosphorylated human tau protein (human, UniProt P10636-8 1-441, limits assumed, S422 phosphorylation).
T1 construct: also called pTau
The experiment is described as follows: SPR BIAcore.
T1 sequence (P10636 other isoform, or with tags, fused parts or gaps limits assumed): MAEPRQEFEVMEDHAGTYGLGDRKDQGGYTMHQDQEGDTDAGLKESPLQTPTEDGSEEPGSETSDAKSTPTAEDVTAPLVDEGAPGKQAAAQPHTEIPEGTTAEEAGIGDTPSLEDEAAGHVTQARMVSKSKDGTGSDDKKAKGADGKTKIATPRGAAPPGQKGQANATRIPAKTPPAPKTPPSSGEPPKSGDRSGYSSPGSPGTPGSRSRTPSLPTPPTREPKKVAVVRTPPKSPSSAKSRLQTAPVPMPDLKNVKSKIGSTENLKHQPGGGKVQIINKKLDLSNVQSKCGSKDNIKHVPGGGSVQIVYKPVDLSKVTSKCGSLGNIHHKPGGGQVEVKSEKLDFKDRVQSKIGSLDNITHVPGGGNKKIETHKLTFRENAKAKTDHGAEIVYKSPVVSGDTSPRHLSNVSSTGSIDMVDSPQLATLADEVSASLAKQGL
B1 returned a BL of 150 RU. The same measure, in the same setting: to B2 belongs 197 RU. On the same count and under the same terms, in the case of B3 it was 97.9 RU; in that of B4, 225 RU; in that of B5, 96.2 RU. On the same count and under the same terms, in the case of B6 it was 63.6 RU; in that of B7, 62.9 RU; in that of B8, 101 RU.

In turn, B9 returned a BL of 102 RU. Still for that read-out and setting: in the case of B10 it was 91.1 RU; in that of B11, 108 RU; in that of B12, 90.9 RU. On the same count and under the same terms, in the case of B13 it was -4.7 RU. Turning to B14, the BL came to 92.2 RU. As to B15, the BL was found to be 59.2 RU.

Another experiment deals with T2, phosphorylated human tau protein (human, UniProt P10636-8 1-441, limits assumed, S422 phosphorylation).
T2 construct: also called pTau
The experiment is described as follows: SPR (BIAcore), captured antibody.
T2 sequence (P10636 other isoform, or with tags, fused parts or gaps limits assumed): as above
As for B16, the “half-life (t1/2)” value was determined as 15.9 min.

Consider B17, for which the “half-life (t1/2)” value came out at 3.44 min.

For B18, the “half-life (t1/2)” value stood at 12.7 min. Regarding B19, the “half-life (t1/2)” value was determined as 4.38 min. Take B20: the “half-life (t1/2)” value came out at 8.41 min. Same read-out and setting: to B21 belongs 1.71 min. On the same count and under the same terms, in the case of B22 it was 5.36 min; in that of B23, 4.76 min. The same measure, in the same setting: to B24 belongs 3.41 min.
